Data: publication doi:10.1101/2024.12.20.629688, “The PH domain in the ArfGAP ASAP1 drives catalytic activation through an unprecedented allosteric mechanism” (bioRxiv, 2024)

T1: ASAP1 ZA domain (Arf GAP and ankyrin repeat domains), [431–724]ASAP1 (UniProt Q9QWY8 431-724)
T1 construct: Isotopically labelled for the PRE experiment; also called ^ΔPHZA; isolated ZA domain; source: recombinant; expression not described
T1 sequence (looked up): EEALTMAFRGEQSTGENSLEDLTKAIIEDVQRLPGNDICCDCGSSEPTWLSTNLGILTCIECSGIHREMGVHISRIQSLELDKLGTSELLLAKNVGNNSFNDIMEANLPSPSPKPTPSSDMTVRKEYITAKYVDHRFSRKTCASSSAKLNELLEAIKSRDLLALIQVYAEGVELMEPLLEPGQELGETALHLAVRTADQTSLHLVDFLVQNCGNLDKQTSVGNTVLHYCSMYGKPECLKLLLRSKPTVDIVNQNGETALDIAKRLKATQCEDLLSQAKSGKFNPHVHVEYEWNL

B1: ΔN14 ASAP1 PH domain, [339–451]ASAP1 (domain or fragment, UniProt Q9QWY8 339-451, looked up)
chain: GSEKKGFLLKKSDGIRKVWQRRKCAVKNGILTISHATSNRQPAKLNLLTCQVKPNAEDKKSFDLISHNRTYHFQAEDEQDYIAWISVLTNSKEEALTMAFRGEQSTGENSLED
notes: ASAP1 PH domain without residues 325-338 (the first 14 residues of the wt PH construct), residues 339-451; also called ^ΔN14PH
B2: Cys159-MTSL tagged myrArf1 (natural protein)
chain: not shown
modifications: N-myristoylated; MTSL spin label on the native Cys159
notes: human Arf1, UniProt P84077; source: E. coli BL21 Star (DE3), co-expressed with yeast NMT, purified; spin-labelled on nanodiscs

Experiments:
[1] = target: T2, myristoylated human Arf1, GTP-bound form, anchored on membrane (nanodiscs or LUVs) (human, UniProt P84077 1-181, N-myristoylated); assay: other fluorescence titration + other: inhibition of the GAP activity of wt PZA; proxies for affinity: (1) rate of mant-GTP dissociation from myrArf1 (Trp to mant FRET) against PH concentration, LUVs with 5 mol% PI(4,5)P2, excess GTP; (2) IC50 of PH domain on GTP hydrolysis in 3 min with myrArf1·GTP below the Km and 1 nM wt PZA; conditions: both partners purified
T2 construct: human Arf1 (ADP-ribosylation factor 1), UniProt P84077, co-expressed with yeast N-myristoyltransferase (UniProt P14743); Loaded with GTP, GTPγS or mant-GTP according to the experiment; Isotope-labelled for NMR; also called myrArf1; myr-Arf1

[2] = target: T2, myristoylated human Arf1, GTP-bound …; assay: cell-based or functional assay
[3] = target: T1, ASAP1 ZA domain (Arf GAP and ankyrin …); assay: NMR paramagnetic relaxation enhancement; Cys159-MTSL myrArf1 (non-hydrolysable GTP analog) alone or in complex with wt PH on nanodiscs, 100 μM, with 100 μM isolated isotopically labelled ZA domain; conditions: both partners purified

T2 sequence (P84077 whole entry, the tested form may be a part): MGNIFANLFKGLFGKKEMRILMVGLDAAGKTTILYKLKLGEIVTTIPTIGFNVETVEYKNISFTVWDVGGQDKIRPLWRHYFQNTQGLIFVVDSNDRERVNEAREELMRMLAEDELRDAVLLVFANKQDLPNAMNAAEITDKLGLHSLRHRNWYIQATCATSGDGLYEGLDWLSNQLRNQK

Row | Binder | affinity relative to wt PH [1] | “in trans” effect of the PH domain on GTP hydrolysis on myrArf1 by the isolated ZA domain (LUVs), relative to wt PH [2] | Kd [3] [µM]
1 | B1 | ~0.5 fold of wt PH | 0.01 fold of wt PH | –
2 | B2 | – | – | 100 to 1000
